As a reminder, the Kd is the equilibrium constant for the complex coming apart. For orientation: koff means the rate constant with which the complex falls apart. Usually kon stands for a measure of how fast the partners come together.

Assay [1] addresses T1, purified recombinant Ep-CAM produced in insect cells (UniProt P16422 24-265, limits assumed).
T1 construct: Coupled to a CM5 sensor chip by NHS/EDC; Neither the species nor the construct limits are stated at this place
T1 sequence (looked up): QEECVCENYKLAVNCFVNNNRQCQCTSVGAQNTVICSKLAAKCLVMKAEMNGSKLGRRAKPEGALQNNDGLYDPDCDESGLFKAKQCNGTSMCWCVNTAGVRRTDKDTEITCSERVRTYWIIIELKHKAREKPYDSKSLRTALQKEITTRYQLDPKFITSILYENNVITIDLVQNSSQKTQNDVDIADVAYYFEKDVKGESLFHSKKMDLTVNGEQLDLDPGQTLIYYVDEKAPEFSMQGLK
The experiment in a line: SPR (BIAcore), recombinant Ep-CAM coupled to CM5 chip, IgG1 in flow. The protocol:
(§1) In separate BIAcore flow cells, approximately 160, 1565 and 4154 resonance units of purified recombinant Ep-CAM produced in insect cells (kindly provided by Dr. D. Herlyn, Wistar institute, Philadelphia, Pa.) (25 µg/ml) in 10 mM acetate buffer (pH 4.0) were coupled to a CM5 sensor chip using NHS/EDC coupling chemistry. Association and dissociation were measured under continuous flow of […] using a concentration range from 100 to 1 nM.
(§2) The kinetic association and dissociation rates of the original huMab UBS-54 and the mutant huMabs A37 and C52 were determined by surface plasmon resonance (Table 1). […] The improvement was mainly the result of a lower […].
For orientation: In SPR one partner is held on a chip, and binding of the other changes the refractive index at the surface.

Assay [2] deals with T1, purified recombinant Ep-CAM produced in …. In words: SPR (BIAcore), recombinant Ep-CAM coupled to CM5 chip. The protocol: as §1, §2

Substitutions are numbered along the chain they refer to.

B1: huMab UBS-54 (antibody, V domains shown)
VH: QVQLVQSGAEVKKPGSSVRVSCKASGGTFSSYAISWVRQAPGQGLEWMGGIIPIFGTANYAQKFQGRVTITADESTSTAYMELSSLRSEDTAVYYCARDPFLHYWGQGTLVT
VL: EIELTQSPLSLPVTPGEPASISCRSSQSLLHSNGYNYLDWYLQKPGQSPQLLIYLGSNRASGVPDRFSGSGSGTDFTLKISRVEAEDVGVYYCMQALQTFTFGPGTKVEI
notes: Tested as an intact human IgG1/kappa huMab made in BHK cells (VH1 / Vk2 V regions); FITC-labelled in the spheroid experiment; also called original huMab UBS-54; original UBS-54
B1: in assay [1], the Kd was found to be 6 nM, the koff came out at 0.0006 s⁻¹ and the association rate constant (kon) was found to be 100000 M⁻¹ s⁻¹.

B2: huMab A37 (antibody, V domains shown)
VH: B1 VH
VL: EIELTQSPGTLSLSPGERATLSCRASQTISNNYLAWYQQKRGQAPRLLIYAASSRATGIPDRFSGTGSGTDFTLTISRLEPEDFAVYYCAQGELYPRQFGGGTKLEI
notes: Tested as an intact human IgG1/kappa huMab made in BHK cells; It has the UBS-54 VH with a shuffled Vk3 light chain; also called mutant A37
In the case of B2, the “fold increase in affinity against the original huMab UBS-54” value in assay [2] is around 4 fold. For the same molecule, in assay [1], the Kd amounted to 1.6 nM, the koff was 0.00041 s⁻¹ and the kon is 250000 M⁻¹ s⁻¹.

B3: huMab C52 (antibody, V domains shown)
VH: B1 VH with S16A, R19K, I52V
VL: B2 VL with T28S, I29V, N31S, N32S, R41P, A51G, T66S, E106D
notes: Tested as an intact human IgG1/kappa huMab made in BHK cells; It has the B43 VH with a DNA-shuffled A37-derived Vk light chain; FITC-labelled in the spheroid experiment; also called mutant C52
Consider B3, for which the “fold improvement of binding affinity against the original UBS-54 huMab” value in assay [2] came out at 15 fold. In addition, in assay [1], the Kd amounted to 0.4 nM, the koff is 0.00011 s⁻¹ and the kon came out at 270000 M⁻¹ s⁻¹.

(Values after US7777010 (CRUCELL HOLLAND B V, dated 2010).)
